Test results published in the nanobody polyreactivity screen of Harvey et al. (2022).

Test: yeast display, Sf9 membrane polyspecificity reagent, FACS + sequencing; frameworks hold sequencing errors
Outline: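 Nanobodies came from a synthetic yeast display library in Saccharomyces cerevisiae BJ5465, induced with galactose for 36–48 hours and stained for 1 hour at 4 °C with 10% biotinylated, detergent-solubilized Sf9 membrane reagent. Cells were enriched on streptavidin microbeads and then FACS-sorted, with low and high (top ~1%) gates set on anti-HA fluorescence for expression and streptavidin fluorescence for reagent binding. Each polyreactivity label reflects the gate a clone came from. Genes were amplified by colony PCR, sequenced by MiSeq 2 × 250 and filtered by CDR length.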

Row | Sequence | polyreactivity (PSR sort gate)
1 | QVQLVESGGGLVQAGCSLRLSCAASRYIFYFYAMGWYRQAPGKERELVAAINSGGTTNYADSVKGRFTISRDNAKNTVYLQMNSLKAEDTAVYYCAARLLIRYYYWGQGTQVTVSS | high polyreactivity
2 | QVQLVESGGGLVQAGCSLRLSCAATGCSFKYNTMGWYRQAPGKERELVAAITSGGGSTYYADSVKGRFTISRDNAKNTVYLPMNRLKPEDTAVYYCAAYRRNTYWGQGTQVTVSA | high polyreactivity
3 | QVQLVESGGGLVQAGCSRRFSCAASGFTFYKNAMGWYRQAPGKERELVAAITSSGGTTYYADSVKGRFTISRDNAKNTVYLQMNSLNPEDTAVYYCAARASRPRFGYWGQGTQVTVSS | high polyreactivity
4 | QVQLVESGGGLVQAGDSLRLSCAASGSIFVYYAMGWYRQAPGKERELVASISKTGGRTYYADSVKGRFTISRDNAKNTVFLQMNSLKPEDTAVYYCAARYTIRYKRYDYWGQGSQVTVSS | high polyreactivity
5 | QVQLVESGGGLVQAGFSLRLSCAASGFTFKYYAMGWYRQAPGKERELVAAISSGGSTYYADSVKGRFTISRDNAKNTVYLQMNSLKPEDTAVYYCNRRFAPFWGRYGYWGQGTKVTVSS | high polyreactivity
6 | QVQLVESGGGLVQAGGCLRLSCAASGFTLRYNAMGWSRQAPGKERELVAAITTGGRTNYADSVKGRFTISRDNAKKTVYLQMNSLKPEDTAVYNCNKVFRSFDYWGQGTQVTVSS | high polyreactivity
7 | QVQLVESGGGLVQAGGCLRLSCAASGSIFGYNAMGWYRHAPGKERELVAAISWRGGSTYYADSVKGRFTISRDNAKNSVYLQMNSLKPEDTAVYYCNTLYPYRHDYAGDYWGQGTQVTVSA | high polyreactivity
8 | QVQLVESGGGLVQAGGCLRLSCAASGSTFSPNAMGWYRQAPGKERELVAAISVSCGTTYYADSVKGRFTISRDNAKNTVYLQMNSLKPEDTAVYYCAAKPYPTDDYWGQGTQVTVSS | low polyreactivity
9 | QVQLVESGGGLVQAGGGLRLSCAASGNTFRYYAMGWYIQAPGKERELVATITSGGRTYYADSVKGRFTISRDNAKNTVYLQMNSLKPEDTAVYYCNADYFQDRLDYWGQGTQVTVSS | low polyreactivity
10 | QVQLVESGGGLVQAGGGLRLSCAASGSIFLINAMGWYRQAPGKERELVAAITSGSSTNYADSVKGRFTISRDNAKNTVYLQMNSLKPEDTAVYYCAASTPYSYRYDYWGQGTQVTVSS | low polyreactivity
11 | QVQLVESGGGLVQAGGGLRLSSAASGTFKRNAVGWYRQAPGKERELVATITRTGSTTYADSVKGRFTISRDNAMNTVYLQMNSLKPEDTAVYYCAAGYPPEDPEDYWGQGTQVTVSS | low polyreactivity
12 | QVQLVESGGGLVQAGGILPLSCAASGSIFVSNAMGWSRQAPGKERELVAAISSGSTYYADSVKGRFTISRDNAKNTVYLQMNSLKPEDTAVFYCIARSLLYEFDYWGQGTQVTVSS | low polyreactivity
13 | QVQLVESGGGLVQAGGILRFSCAASGRISVVNAMAWFRQAPGKARELVAAIRRASTNYADSVKGRFTISRDNAKNTVYLQMNSLKPEDTAVYYCAARVYGINIFEYWGQGTQVTLSS | high polyreactivity
14 | QVQLVESGGGLVQAGGILRISCAASGRTFIMNAMGWYRQAPGKERELVAAINWSGGTSTYYADSVKGRFTISRDNAKNTVYFQMNSLKPEDTAVYYCAADYYSYVYYDYWGQGTLVTVSS | low polyreactivity
15 | QVQLVESGGGLVQAGGILRLSCAASGFIFAPNAMGWYRQPPGKERELVAAISASGGSTYYADSVKGRFTISRDNAKNTVYLQMNSLKPEDTAVYYCAADRTFSSFPEYNYWGQGTQVTVSS | low polyreactivity
16 | QVQLVESGGGLVQAGGILRLSCAASGFIFDSYAMGWYRQAPGKERELVAAINWNGGRTYYADSVKGRFTISRDNAKNTVYLQMNRLKPEDTAVYYCAKDTDNWDVGGYVYDYDYWGQGTQVTVSS | high polyreactivity
17 | QVQLVESGGGLVQAGGILRLSCAASGFIFRKYAMGWYRQAPGKERELVAAINKSGGSTYYADSVKGRFTISRDNAKNTVYLQMNSLKPEDSAVYYCATVRTYRPPVRRGYWGQGTLVTVSS | high polyreactivity
18 | QVQLVESGGGLVQAGGILRLSCAASGFTFHRYAMGWYRQAPGKERELVARITRGGSTKYADSVKGRFTISRDNAKNTVYLQMNSLKPEDTAVYYCAADYGGFLGYDYWGQGNQVTVSS | high polyreactivity
19 | QVQLVESGGGLVQAGGILRLSCAASGFTFPWYTMGWYRQAPGKERELVAAISKSGGSTYYADSVKGRFTISRDNAKNTVFLQMNSLKPEDTAVYYCAARGNLYVGGDERFWGQGTQVTVSS | high polyreactivity
20 | QVQLVESGGGLVQAGGILRLSCAASGFTLLPYAMGWYTQAPGKERELVAAISRRGVSTYYADSVKGRFTLSRDNAKNTVYLPMNSLNPQDTAVNYCAADSYSRATVQYEYWGQCTQVTVSS | high polyreactivity
21 | QVQLVESGGGLVQAGGILRLSCAASGGIFNRYSKGWYRQAPGKERELVAGITRSGGSTSYADSVKGRFTISRDNAKNTVYLQMNSLKPEDTAVYFCKKVAYYASSSSYRFGAYGYWGQGSQVTVSS | high polyreactivity
22 | QVQLVESGGGLVQAGGILRLSCAASGIIYQRNAMGCYRQAPGKERQLVASITAGGDTTYYADSVKGRFTISRDNAKNTVYLQMNSLKPEDTAVYYCAVDSWLDDDDSYPDSILVDYWGQGTQVTVSS | low polyreactivity
23 | QVQLVESGGGLVQAGGILRLSCAASGLIFANNAMGWYRQAPGKERELVAAITGGGDGTYYADYVKGRFTISRDNAKNNVYFQMNSLKPEDTAVYYCAADYKYLGSEYCYWGQGTQVTVSS | low polyreactivity
24 | QVQLVESGGGLVQAGGILRLSCAASGLIFPPNAMGWYRQAPGKERELVASITRSGGSTYYADSVKGRFTISRDNAKNTVYLQMNSLKPEDTAVYYCAAYLDTSRYGVLYDYWGQGTQVTVSS | low polyreactivity
25 | QVQLVESGGGLVQAGGILRLSCAASGNIFESYGMGWYRQAPGKERELVAANSYSGGTTYYADSVKGRFTFSRDNEKNTVYLQMNSLKPEDTAVYYCAARLHHFFTYDYWGQGTQVTVSS | low polyreactivity
26 | QVQLVESGGGLVQAGGILRLSCAASGQIFTYYVMGWYRQAPGKERELVAAIDWDSGSTSYADSLKGRFTISRDNAKNTVYLQMNSLKPEDTAVYYCAADEVLSGYYTLDYWGQGTQVTVSS | low polyreactivity
27 | QVQLVESGGGLVQAGGILRLSCAASGRIFHWYAMGWYRQAPGKERELVDAITDGYSTYYADSVNGRYKISRDNAKNTVYLQMNSLKPEETAVYYCAADVGYSPYVFGVTRYYKYDYWGQGTQVTVSS | low polyreactivity
28 | QVQLVESGGGLVQAGGILRLSCAASGRIFKDNAMGWYRLAPGKERELVATIDSGGDTNYADSVKGRFTISRDNAKNTVYLQMNSLKPEDTAVYYSNTEGFLSAVYAFGYWGQGTQVTVSS | low polyreactivity
29 | QVQLVESGGGLVQAGGILRLSCAASGRIFPKYAMGWYRQAPGKERELVAAIRWSGGNTYYADSVKGRFTISRDNAKNTVYLQMNSLKPEDTAVYYCAATPYVSKYYYFGHDYWGQGTQVTVSS | high polyreactivity
30 | QVQLVESGGGLVQAGGILRLSCAASGRIFTRYSLGWYRPAPGKESELVAAISSGGSTYYADSVKGRFTISRDNAKNTVYLQMNSLKPEDTAVYYSAAKTRPQRTFSTRQQMNYWGQGTQVTVSS | high polyreactivity
